Results: US20240368668A1, “SUBSTRATES AND BIOMARKERS OF ADAMTS7” (The Broad Institute, Inc., priority 2021, published 2024)

Target: T1, mouse ADAMTS7 (Mus musculus, UniProt Q68SA9, E373Q)
T1 construct: Full-length mouse Adamts7 1-1857 (Uniprot Q68SA9, WT or E373Q catalytic mutant); expressed in transfected cells; host or cells: Human Coronary Artery Smooth Muscle Cells (HCA-SMC, Lonza), adenovirus 50 MOI
T1 sequence (Q68SA9 221-1657 E373Q): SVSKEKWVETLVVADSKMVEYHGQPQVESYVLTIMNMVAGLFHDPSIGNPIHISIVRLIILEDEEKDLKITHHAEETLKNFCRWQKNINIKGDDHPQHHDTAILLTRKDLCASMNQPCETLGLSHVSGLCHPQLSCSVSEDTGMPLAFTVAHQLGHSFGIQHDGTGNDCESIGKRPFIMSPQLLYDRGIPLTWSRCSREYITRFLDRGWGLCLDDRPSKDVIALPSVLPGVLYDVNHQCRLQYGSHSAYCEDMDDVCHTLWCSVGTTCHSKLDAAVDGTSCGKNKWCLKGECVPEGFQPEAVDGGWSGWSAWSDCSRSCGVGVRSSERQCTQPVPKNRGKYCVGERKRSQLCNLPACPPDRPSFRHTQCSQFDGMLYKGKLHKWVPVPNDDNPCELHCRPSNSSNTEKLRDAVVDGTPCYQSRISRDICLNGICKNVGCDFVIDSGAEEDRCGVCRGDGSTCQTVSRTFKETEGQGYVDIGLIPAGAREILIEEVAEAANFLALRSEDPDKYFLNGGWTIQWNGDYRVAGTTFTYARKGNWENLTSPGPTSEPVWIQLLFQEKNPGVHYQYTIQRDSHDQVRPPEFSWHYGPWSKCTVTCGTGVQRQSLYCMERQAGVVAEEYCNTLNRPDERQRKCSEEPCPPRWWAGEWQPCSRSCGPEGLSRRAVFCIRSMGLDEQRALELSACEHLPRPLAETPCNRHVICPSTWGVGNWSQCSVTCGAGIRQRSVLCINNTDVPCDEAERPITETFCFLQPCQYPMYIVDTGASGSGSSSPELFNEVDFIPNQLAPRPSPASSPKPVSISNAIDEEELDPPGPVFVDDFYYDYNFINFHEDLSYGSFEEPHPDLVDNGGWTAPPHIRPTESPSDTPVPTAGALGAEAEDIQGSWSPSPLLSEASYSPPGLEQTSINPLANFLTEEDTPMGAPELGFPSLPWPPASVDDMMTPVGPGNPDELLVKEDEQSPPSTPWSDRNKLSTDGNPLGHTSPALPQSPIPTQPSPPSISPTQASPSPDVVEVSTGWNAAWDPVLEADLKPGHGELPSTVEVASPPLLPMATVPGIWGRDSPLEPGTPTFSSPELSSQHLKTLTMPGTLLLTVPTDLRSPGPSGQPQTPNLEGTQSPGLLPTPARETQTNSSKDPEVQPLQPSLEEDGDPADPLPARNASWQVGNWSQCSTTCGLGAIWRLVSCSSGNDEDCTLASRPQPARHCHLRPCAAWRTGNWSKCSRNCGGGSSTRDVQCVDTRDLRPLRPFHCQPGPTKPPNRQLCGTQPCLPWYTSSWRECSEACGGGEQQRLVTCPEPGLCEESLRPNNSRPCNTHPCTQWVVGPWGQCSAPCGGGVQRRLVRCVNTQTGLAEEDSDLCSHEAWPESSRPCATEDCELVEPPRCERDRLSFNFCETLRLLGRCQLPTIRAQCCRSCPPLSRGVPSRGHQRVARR
Assay: TMT10 TAILS N-terminomics, HUVEC experiment (process replicates, trypsin/AspN digest)
Type: cell-based, human
Settings: HUVEC TAILS HC; log fold change of N-terminal peptide, Ad-mADAMTS7 EQ over Luc
How it was run: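 Full-length mouse ADAMTS7 (WT or E373Q mutant, C-terminal 3xFLAG) or luciferase was transduced via adenovirus, 50 MOI, into HCA-SMC (SMC1, SMC2) or HUVEC. SMC1: pooled media, technical triplicates 400 ug; SMC2: process triplicates 300 ug; HUVEC: process triplicates 200 ug, bFGF2 10 ng/ml.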

“SPOCK1_27 (LAGGAGPNHGNFL; listed as Homo sapiens)” and “NID2_291 (HSSVPLGR; listed as Homo sapiens)” are within 0.2 log units of each other in logFC.mEQ.over.Luc: −0.17 for the first, −0.10 for the second.

“NUCB1_317 (FLASTQR; listed as Homo sapiens)” and “MAP4_816 (VASTGPSSR; listed as Homo sapiens)” are within 0.2 log units of each other in logFC.mEQ.over.Luc: 0.06 for the first, 0.08 for the second.

First: THBS2_290 (LSENLKR; listed as Homo sapiens)
Second: SERBP1_56 (QAAAQTNSNAAGKQLR; listed as Homo sapiens)
The logFC.mEQ.over.Luc of the first is higher: 0.64 for the first, −0.20 for the second.

Compared with “LTBP2_502 (LVENSVETRPPPWLPASPGHSLW; listed as Homo sapiens)”, “LTBP2_250 (SAAGEGTLAR; listed as Homo sapiens)” is higher in logFC.mEQ.over.Luc: −0.22 for the first, 0.12 for the second.

“NID1_360 (FHQQHPQVI; listed as Homo sapiens)” and “NUCB1_389 (LQQAVLHMEQR; listed as Homo sapiens)” are within 0.2 log units of each other in logFC.mEQ.over.Luc: −0.30 for the first, −0.22 for the second.

Going from “MAP4_815 (AVASTGPSSR; listed as Homo sapiens)” to “LTBP2_79 (VAGLQPVER; listed as Homo sapiens)”, the logFC.mEQ.over.Luc falls from 0.36 to −0.38.

First: COL18A1_1505 (LQPPVVQLHDSNPYPR; listed as Homo sapiens)
Second: SRGN_59 (LLPGESNKIPR; listed as Homo sapiens)
The logFC.mEQ.over.Luc of the first is lower: −0.84 for the first, −0.13 for the second.

In the case of “LTBP3_208 (FLVPLGPGQISA; listed as Homo sapiens)”, the logFC.mEQ.over.Luc is reported as −0.60.
